Numbering of substitutions follows the chain as printed.
T1: hsEREG-His (mature human EREG-6His fusion protein) (human, UniProt O14944 30-108)
T1 sequence: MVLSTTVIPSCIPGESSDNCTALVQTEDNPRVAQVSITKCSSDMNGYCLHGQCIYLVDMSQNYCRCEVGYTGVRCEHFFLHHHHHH

B1: H87-G1d/LB-k (antibody, human IgG1, kappa, V domains shown)
VH: QDQLVQSGAEVKKPGASVKVSCKASGFNIKDTYIQWVRQAPGQGLEWMGRIDPLTGQTKYQEKFEGRVTITADTSTNTAYMELSSLRSEDTAVYYCVRSGTSFDFWGQGTLVTVSS
VL: DIQMTQSPSSLSASVGDRVTITCKASQDIHKYIAWYQQKPGQAPRLLIQYTSTLQPGVPSRFSGSGSGTDYTFTISSLQPEDIATYYCLQYDNLRTFGGGTKVEIKR
B2: H206-G1d/L53-k (antibody, human IgG1, kappa, V domains shown)
VH: B1 VH with K13N, T55R, G56R, Q61R, T101R, S102E
VL: B1 VL with K24R
B3: H240-G1d/L53-k (antibody, human IgG1, kappa, V domains shown)
VH: B1 VH with T55R, G56K, Q61R, T101R, S102E, F105Y
VL: B1 VL with K24R
B4: H205-G1d/L73-k (antibody, human IgG1, kappa)
heavy: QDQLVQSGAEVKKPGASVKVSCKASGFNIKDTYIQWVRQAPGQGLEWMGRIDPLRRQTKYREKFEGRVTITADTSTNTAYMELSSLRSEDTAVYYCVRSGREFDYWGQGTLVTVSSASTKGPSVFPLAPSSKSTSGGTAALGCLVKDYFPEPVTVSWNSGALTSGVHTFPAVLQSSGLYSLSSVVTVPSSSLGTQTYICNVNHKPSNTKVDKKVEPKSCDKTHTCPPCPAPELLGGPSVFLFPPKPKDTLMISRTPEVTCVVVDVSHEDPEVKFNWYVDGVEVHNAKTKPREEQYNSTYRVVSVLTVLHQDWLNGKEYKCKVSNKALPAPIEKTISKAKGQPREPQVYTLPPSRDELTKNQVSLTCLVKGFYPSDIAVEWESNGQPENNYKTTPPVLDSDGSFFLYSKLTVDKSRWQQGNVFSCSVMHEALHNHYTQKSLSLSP
light: DIQMTQSPSSLSASVGDRVTITCRASQDIHKYIAWYQQKPGQAPRLLIQYTSTLQPGVPSRFSGSGSGTDYTFTISSLQPEDIATYYCLQYEQLRTFGGGTKVEIKRTVAAPSVFIFPPSDEQLKSGTASVVCLLNNFYPREAKVQWKVDNALQSGNSQESVTEQDSKDSTYSLSSTLTLSKADYEKHKVYACEVTHQGLSSPVTKSFNRGEC
B5: H231-G1d/L73-k (antibody, human IgG1, kappa)
heavy: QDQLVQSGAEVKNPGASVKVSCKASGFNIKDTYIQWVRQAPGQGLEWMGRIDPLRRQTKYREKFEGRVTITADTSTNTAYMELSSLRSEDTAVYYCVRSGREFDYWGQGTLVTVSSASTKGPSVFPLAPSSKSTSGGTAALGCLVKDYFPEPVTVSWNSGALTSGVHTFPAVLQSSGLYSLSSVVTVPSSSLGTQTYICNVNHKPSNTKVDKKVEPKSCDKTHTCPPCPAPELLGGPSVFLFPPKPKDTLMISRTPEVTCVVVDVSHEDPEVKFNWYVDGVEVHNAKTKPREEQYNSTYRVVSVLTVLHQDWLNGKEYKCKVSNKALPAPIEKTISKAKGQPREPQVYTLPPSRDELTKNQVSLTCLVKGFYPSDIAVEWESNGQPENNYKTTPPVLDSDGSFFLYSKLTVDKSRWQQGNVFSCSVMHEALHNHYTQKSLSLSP
light: B4 light
B6: H206-G1d/L73-k (antibody, human IgG1, kappa, V domains shown)
VH: B1 VH with K13N, T55R, G56R, Q61R, T101R, S102E
VL: B1 VL with K24R, D92E, N93Q
B7: H240-G1d/L73-k (antibody, human IgG1, kappa, V domains shown)
VH: B1 VH with T55R, G56K, Q61R, T101R, S102E, F105Y
VL: B1 VL with K24R, D92E, N93Q
B8: chimeric antibody EP27 (cH-G1/cL-k) (antibody, human IgG1, kappa, V domains shown)
VH: EDQLQQSGAELVKPGASVKLSCTASGFNIKDTYIQWVKLRPEQGLEWIGRIDPLNGNTKYVPKFQGKATITADTSSNTAYLQLSSLTSEDTAVYYCVRSGTLFDFWGQGTTLTVSS
VL: DIQMTQSPSSLSASLGGKVTITCKASQDIHKYIAWYQHKPGKGPRLLIQYTSTLQPGIPSRFSGSGSGRDYSFSISNLEPEDIATYYCLQYDNLRTFGGGTKLEIKR
notes: mouse EP27 variable regions with human IgG1 (G1) and kappa constant regions; also called chimeric EP27
B9: H132-G1d/LB-k (antibody, human IgG1, kappa, V domains shown)
VH: B1 VH with T55R, G56R, Q57N, Q61R, T101R, S102L
VL: B1 VL
B10: H133-G1d/LB-k (antibody, human IgG1, kappa, V domains shown)
VH: B1 VH with T55R, G56R, Q57N, Q61R, S102R
VL: B1 VL
B11: H131-G1d/LB-k (antibody, human IgG1, kappa, V domains shown)
VH: B1 VH with T55R, G56R, Q57N, Q61R, G100R, S102L
VL: B1 VL
B12: H124-G1d/LB-k (antibody, human IgG1, kappa, V domains shown)
VH: B1 VH with Y33R, T55R, Q57N, Q61R, S102L
VL: B1 VL
B13: H123-G1d/LB-k (antibody, human IgG1, kappa, V domains shown)
VH: B1 VH with T55R, Q57N, Q61R, G66R, S102L
VL: B1 VL
B14: H121-G1d/LB-k (antibody, human IgG1, kappa, V domains shown)
VH: B1 VH with T55R, Q57N, Q61R, K63R, S102L
VL: B1 VL

Target: T2, cynomolgus EREG (Biacore analyte) (cynomolgus monkey, UniProt O14944 63-108 (human entry), limits assumed)
T2 construct: also called cynomolgus monkey EREG; cEREG
Assay: SPR (Biacore T100), antibody captured on Protein A, EREG as analyte, single-cycle kinetics
Experimental: (§1) The affinity and association rate constant of an anti-EREG antibody for an antigen were measured by the single-cycle kinetics method of surface plasmon resonance assay using Biacore™-T100 (GE Healthcare Japan). HBS-EP+ (GE Healthcare Japan) was used for the running buffer, and an amine coupling kit (GE Healthcare Japan) was used to covalently bond Protein A to the CM5 chip (carboxymethyl dextran-coated chip). Each anti-EREG antibody was prepared so that approximately 350 RU will be captured by Protein A. Human EREG or cynomolgus EREG used as the analyte was prepared at 0, 0.7, 1.4, 2.8, 5.6, and 11.2 nM using HBS-EP+. Measurement was carried out by first allowing Protein A to capture the antibody solution, and then at a flow rate of 30 μL/min, successively injecting each of the 0, 0.7, 1.4, 2.8, 5.6, and 11.2 nM human EREG or cynomolgus EREG solutions for three minutes to allow reaction to take place. Then, the solution was switched to HBS-EP+, and the dissociation phase was measured for 15 minutes. After completion of the dissociation phase measurement, the sensor chip was washed with 25 mM NaOH and regenerated. The measurement at zero concentration was similarly carried out by allowing Protein A to capture the antibody solution, and performing three-minute HBS-EP+ injections successively for five times to allow reaction to take place, and then switching to HBS-EP+ to measure the dissociation phase for 15 minutes. After completion of the dissociation phase measurement, the sensor chip was washed with 25 mM NaOH and regenerated. A data analysis software exclusively for Biacore, Biacore T100 Evaluation Software Version 2.0.1, was used to perform kinetic analyses to calculate the association rate constant (kₐ), dissociation rate constant (kd), and the rate constant ratio from the obtained sensorgrams. To correct for the day-to-day differences in the measurement values, FIGS. 1 to 4 and Tables 16 and 19 show ratios based on taking the value of the control sample (cH-G1/cL-k) measured on the same day as 1.

T2 sequence (O14944 other isoform, or with tags, fused parts or gaps limits assumed): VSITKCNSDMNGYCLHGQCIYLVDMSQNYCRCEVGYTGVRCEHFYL

Row | Kd [pM] | koff [s⁻¹] | kon [M⁻¹ s⁻¹] | Binder
1 | 5200 | 0.0045 | 860000 | B1
2 | 940 | 0.00061 | 640000 | B2
3 | 1500 | 0.00089 | 610000 | B3
4 | 690 | 0.00026 | 370000 | B4
5 | 660 | 0.00028 | 420000 | B5
6 | 450 | 0.00023 | 500000 | B6
7 | 870 | 0.00029 | 340000 | B7
8 | 5200 | 0.0052 | 990000 | B8

Target: T3, Human EREG (Biacore analyte) (human, UniProt O14944 63-108)
T3 construct: also called hEREG; human epiregulin
Assay: as above
Experimental: as §1

Row | Kd [pM] | koff [s⁻¹] | kon [M⁻¹ s⁻¹] | Binder
9 | 150 | 0.0002 | 1.3e+06 | B1
10 | 170 | 0.00011 | 660000 | B2
11 | 270 | 0.00011 | 420000 | B3
12 | 190 | 7.5e-05 | 390000 | B4
13 | 140 | 8.7e-05 | 620000 | B5
14 | 130 | 7.4e-05 | 550000 | B6
15 | 220 | 7.7e-05 | 340000 | B7
16 | 200 | 0.00022 | 1.1e+06 | B8

Target: T2, cynomolgus EREG (Biacore analyte)
Assay: SPR (Biacore T100); KD for monkey EREG over KD for human EREG
Experimental: as §1

Row | cEREG (nM)/hEREG (nM) [ratio] | Binder
17 | 35.1 | B1
18 | 5.2 | B2
19 | 5.4 | B3
20 | 3.1 | B4
21 | 3.5 | B5
22 | 3.4 | B6
23 | 3.6 | B7
24 | 40.9 | B8

Target: T2, cynomolgus EREG (Biacore analyte)
Assay: SPR (Biacore T100), antibody captured on Protein A, EREG as analyte; KD for monkey EREG over KD for human EREG
Experimental: as §1

Row | cEREG KD (nM)/hEREG KD (nM) [ratio] | Binder
25 | 35.1 | B1
26 | 4.6 | B9
27 | 6.1 | B10
28 | 4.7 | B11
29 | 20.6 | B12
30 | 8.2 | B13
31 | 8.3 | B14
32 | 40.9 | B8

Target: T1, hsEREG-His (mature human EREG-6His …)
Assay: cell-based or functional assay

Row | IC50 (read off the curve), growth ratio of EGFR_BAF cells with hsEREG-His 2.5 ng/mL [µg/mL] | Binder
33 | ~0.4 | B3
34 | ~0.8 | B6
35 | ~0.5 | B7
36 | ~0.7 | B8
